Experimental data reported in article PMC8639739, “Catalytic flexibility of rice glycosyltransferase OsUGT91C1 for the production of palatable steviol glycosides” (Nature Communications, 2021).
Substitutions are numbered along the chain they refer to. In names and notes the source's numbering stands.

T1: OsUGT91C1 (Oryza sativa, UniProt Q0DPB7)
T1 construct: gene Os03g0702000; synthetic coding region in pET28b, His-tagged, E. coli BL21(DE3); HisTrap and gel filtration; tag removal not mentioned; monomer
T1 sequence (Q0DPB7 1-462): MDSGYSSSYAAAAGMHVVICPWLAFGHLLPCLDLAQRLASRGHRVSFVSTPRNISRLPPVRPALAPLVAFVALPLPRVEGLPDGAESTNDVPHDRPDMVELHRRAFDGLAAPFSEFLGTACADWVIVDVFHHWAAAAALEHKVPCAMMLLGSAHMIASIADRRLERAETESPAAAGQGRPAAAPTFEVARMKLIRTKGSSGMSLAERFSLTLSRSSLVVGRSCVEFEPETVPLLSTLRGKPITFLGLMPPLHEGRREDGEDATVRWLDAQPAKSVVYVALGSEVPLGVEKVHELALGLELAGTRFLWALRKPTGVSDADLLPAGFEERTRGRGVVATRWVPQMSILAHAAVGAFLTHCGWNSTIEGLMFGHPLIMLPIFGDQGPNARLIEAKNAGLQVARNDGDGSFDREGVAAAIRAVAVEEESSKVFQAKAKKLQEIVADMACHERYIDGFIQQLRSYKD

B1: OsUGT91C1 (Oryza sativa Japonica Group; F208M) (protein)
chain: T1 sequence (Q0DPB7 1-462) with F208M
notes: synthetic coding region in pET28b, His-tagged, E. coli BL21(DE3); HisTrap and gel filtration; tag removal not mentioned; monomer
B2: OsUGT91C1 (Oryza sativa Japonica Group; F379A) (protein)
chain: T1 sequence (Q0DPB7 1-462) with F379A
notes: as for B1
B3: OsUGT91C1 (Oryza sativa Japonica Group) (protein)
chain: T1 sequence (Q0DPB7 1-462)
notes: as for B1
B4: OsUGT91C1 (Oryza sativa Japonica Group; F208M/F379A) (protein)
chain: T1 sequence (Q0DPB7 1-462) with F208M, F379A
notes: as for B1

Legend:
OsUGT91C1 = target: T1, OsUGT91C1; experiment: X-ray crystal structure; type: binding; settings: complexes with Reb E, ST or STB; UDP-glucose site
[1] = substrate: C=C1C[C@@]23CC[C@H]4[C@@](C)(CCC[C@@]4(C)C(=O)O)[C@@H]2CC[C@]1(O[C@@H]1O[C@H](CO)[C@@H](O)[C@H](O)[C@H]1O)C3; experiment: UDP-Glo glycosyltransferase assay, Michaelis-Menten fit; type: biochemical, Oryza sativa; settings: 200 μM UDP-glucose; beta(1-2) glucosylation at R1
[2] = substrate: C=C1C[C@@]23CC[C@H]4[C@@](C)(CCC[C@@]4(C)C(=O)O[C@@H]4O[C@H](CO)[C@@H](O)[C@H](O)[C@H]4O)[C@@H]2CC[C@]1(O[C@@H]1O[C@H](CO)[C@@H](O)[C@H](O)[C@H]1O)C3; experiment: as above; type: biochemical, Oryza sativa; settings: 200 μM UDP-glucose; combined beta(1-2) glucosylation at R1 and R2
purified protein = substrate: C=C1C[C@@]23CC[C@H]4[C@@](C)(CCC[C@@]4(C)C(=O)O[C@@H]4O[C@H](CO)[C@@H](O)[C@H](O)[C@H]4O)[C@@H]2CC[C@]1(O[C@@H]1O[C@H](CO)[C@@H](O)[C@H](O[C@@H]2O[C@H](CO)[C@@H](O)[C@H](O)[C@H]2O)[C@H]1O[C@@H]1O[C@H](CO)[C@@H](O)[C@H](O)[C@H]1O)C3; experiment: purified protein; settings: 200 μM UDP-glucose; beta(1-2) glucosylation at R2
[3] = substrate: C=C1C[C@@]23CC[C@H]4[C@@](C)(CCC[C@@]4(C)C(=O)O)[C@@H]2CC[C@]1(O[C@@H]1O[C@H](CO)[C@@H](O)[C@H](O)[C@H]1O[C@@H]1O[C@H](CO)[C@@H](O)[C@H](O)[C@H]1O)C3; experiment: UDP-Glo glycosyltransferase assay, Michaelis-Menten fit; type: biochemical, Oryza sativa; settings: 200 μM UDP-glucose; beta(1-6) glucosylation at R1; crystal structure with UDP, R1 end at active site

Row | Molecule | X-ray crystal structure (OsUGT91C1) | Km [1] | kcat [1] | kcat/Km [1] | Km [2] | kcat [2] | kcat/Km [2] | Km (purified protein) | kcat (purified protein) | kcat/Km (purified protein) | Km [3] | kcat [3] | kcat/Km [3]
1 | O=c1ccn([C@@H]2O[C@H](COP(=O)(O)OP(=O)(O)O)[C@@H](O)[C@H]2O)c(=O)[nH]1 [UDP] | UDP is bound identically in all four complexes |  |  |  |  |  |  |  |  |  |  |  | 
2 | B1 |  | 18.7 ± 1.7 µM | 0.065 ± 0.00167 s⁻¹ | 3480 M⁻¹ s⁻¹ | 20.9 ± 1.7 µM | 0.04 ± 0.00167 s⁻¹ | 1910 M⁻¹ s⁻¹ | 25.2 ± 2.0 µM | 0.0483 s⁻¹ | 1920 M⁻¹ s⁻¹ |  |  | 
3 | B2 |  | 19.0 ± 2.6 µM | 0.0967 ± 0.00333 s⁻¹ | 5090 M⁻¹ s⁻¹ | 16.5 ± 2.6 µM | 0.045 ± 0.00167 s⁻¹ | 2730 M⁻¹ s⁻¹ | 37.0 ± 2.5 µM | 0.0193 s⁻¹ | 523 M⁻¹ s⁻¹ |  |  | 
4 | B3 |  | 24.9 ± 2.5 µM | 0.0483 ± 0.00167 s⁻¹ | 1940 M⁻¹ s⁻¹ | 49.5 ± 5.3 µM | 0.0333 ± 0.00167 s⁻¹ | 673 M⁻¹ s⁻¹ | 45.7 ± 3.0 µM | 0.0203 s⁻¹ | 445 M⁻¹ s⁻¹ | 71 ± 12 µM | 0.0105 ± 0.0005 s⁻¹ | 148 M⁻¹ s⁻¹
5 | B4 |  | 9.7 ± 1.9 µM | 0.0583 ± 0.00167 s⁻¹ | 6010 M⁻¹ s⁻¹ | 11.7 ± 1.0 µM | 0.0467 ± 0.00167 s⁻¹ | 3990 M⁻¹ s⁻¹ | 15.1 ± 2.6 µM | 0.0283 s⁻¹ | 1880 M⁻¹ s⁻¹ |  |  | 
